The target in data set [1] is AtCYT6-CTD_(long), the C-terminal domain containing the interdomain linker at its N-terminus (Arabidopsis thaliana). In words: SEC; Superdex 75, 500 uL of protein at up to 2 mg/mL, 20 mM Tris pH 7.5, 50 mM NaCl, nonreducing, room temperature.
Data set [2] deals with the molecule itself. The data set is described as above.
For data set [3], the target named is T1, Papain from Carica papaya (Carica papaya, UniProt P00784 134-345).
T1 sequence (looked up): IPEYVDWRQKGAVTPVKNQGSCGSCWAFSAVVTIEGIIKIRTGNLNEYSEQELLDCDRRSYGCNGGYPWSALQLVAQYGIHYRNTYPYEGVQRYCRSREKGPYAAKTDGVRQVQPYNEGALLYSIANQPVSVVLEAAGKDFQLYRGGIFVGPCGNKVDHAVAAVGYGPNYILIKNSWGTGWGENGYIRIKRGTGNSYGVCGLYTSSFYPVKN
Description: cell-based or functional assay.

Data set [4] deals with the molecule itself. In words: SEC; Superdex 200, 500 uL of AtCYT6 at 2 mg/mL, 20 mM Tris pH 7.5, 50 mM NaCl, without or with 2 mM DTT, room temperature.
Data set [5] concerns the molecule itself. Description: cross-linking; 0.175% (w/v) glutaraldehyde, protein at 0.3 mg/mL in 20 mM citric acid pH 5.5, 100 mM NaCl, room temperature, 1, 5 and 10 min, read by SDS-PAGE.

“AtCYT6-CTD_(long), the C-terminal domain containing the interdomain linker at its N-terminus (domain or fragment)”: the stoichiometry N in data set [1] turned out to be 2.

B1: AtCYT6-NTD, the isolated N-terminal cystatin domain of AtCYT6 (domain or fragment, Arabidopsis thaliana, UniProt Q8H0X6 35-127, looked up)
chain: ALVGGVGDVPANQNSGEVESLARFAVDEHNKKENALLEFARVVKAKEQVVAGTLHHLTLEILEAGQKKLYEAKVWVKPWLNFKELQEFKPASD
notes: N-terminal cystatin domain of cystatin 6 of Arabidopsis thaliana; no cysteine; The limits Ala35–Asp127 are printed for the AlphaFold model named AtCYT6-NTD, on Uniprot ID Q8H0X6; pET-28a vector; also called N-terminal domain; source: E. coli BL21 (DE3), purified (Ni2+ IMAC, gel filtration)
B1: the “stoichiometry N” value in data set [2] amounted to 2. Besides, in data set [3], the “IC50 of papain inhibition in a fluorescence substrate assay: dimer peak fraction of AtCYT6-NTD against the monomer peak fraction” value was 10 fold.

B2: Arabidopsis thaliana phytocystatin 6 (AtCYT6), full-length AtCYT6 lacking the N-terminal signal peptide (natural protein, UniProt Q8H0X6 35-234, looked up)
chain: ALVGGVGDVPANQNSGEVESLARFAVDEHNKKENALLEFARVVKAKEQVVAGTLHHLTLEILEAGQKKLYEAKVWVKPWLNFKELQEFKPASDAPAITSSDLGCKQGEHESGWREVPGDDPEVKHVAEQAVKTIQQRSNSLFPYELLEVVHAKAEVTGEAAKYNMLLKLKRGEKEEKFKVEVHKNHEGALHLNHAEQHHD
notes: Cystatin 6 (phytocystatin 6) of Arabidopsis thaliana without the N-terminal signal peptide (M1-M34); both cystatin domains and the interdomain linker with Cys138; pET-15b vector; In the functional rows on fibrils this protein stood as washed amyloid fibrils (heated at 80 °C, pH 3.0); also called cystatin 6 from A. thaliana; source: E. coli BL21 (DE3), purified (Ni2+ IMAC, gel filtration)
On to B2, for which, in data set [4], the binding result was “binds”.

B3: AtCYT6, alkylated before cross-linking (natural protein, Arabidopsis thaliana, UniProt Q8H0X6 35-234, looked up)
chain: B2 chain
modifications: alkylated to prevent disulfide-mediated dimerization via Cys138
notes: As m1: cystatin 6 of Arabidopsis thaliana without the N-terminal signal peptide (M1-M34); Ala35 to Asp234 according to Uniprot ID Q8H0X6; source: E. coli BL21 (DE3), purified (Ni2+ IMAC, gel filtration), then alkylated
Turning to B3, the “stoichiometry N” value in data set [5] is 2.

Source of the values: paper PMC10702442, “Arabidopsis thaliana Phytocystatin 6 Forms Functional Oligomer and Amyloid Fibril States” (Biochemistry, 2023).
